Test results as given in article PMC8580882.

Target: Cyclosorus parasiticus chalcone synthase 1 (CpCHS1) (Cyclosorus parasiticus)
Test: crystal structure; sitting-drop vapor diffusion at 20°C; 0.2 M sodium chloride, 0.1 M Tris-HCl pH 8.0, 20% w/v PEG 4000; apo form at 1.9 Å, complexes with naringenin and with naringenin + CoA at 2.4 Å; molecular replacement with 6DXB

stoichiometry N: 2
Substance: Cyclosorus parasiticus chalcone synthase 1 (CpCHS1) (enzyme)
